Experimental data as given in the Immune Epitope Database (IEDB).

Columns and labels:
[1] = biological target: HLA-A*02:06; assay: IEDB peptide-MHC binding, purified MHC/competitive/radioactivity; filed as Kd, often an IC50 or EC50 that approximates it; ≥ and ≤ were set here for values at or beyond the usual limits of such assays; settings: source organism: Homo sapiens
[2] = biological target: HLA-A*02:02; assay: as above; settings: source organism: Homo sapiens
[3] = biological target: HLA-A*02:01; assay: as above; settings: source organism: Homo sapiens
[4] = biological target: HLA-A*02:03; assay: as above; settings: source organism: Homo sapiens
[5] = biological target: HLA-A*68:02; assay: as above; settings: source organism: Homo sapiens
[6] = biological target: HLA-B*40:01; assay: as above
[7] = biological target: HLA-B*45:01; assay: as above
[8] = biological target: HLA-B*44:03; assay: as above
[9] = biological target: HLA-B*40:02; assay: as above
[10] = biological target: HLA-B*44:02; assay: as above
[11] = biological target: HLA-B*18:01; assay: as above
[12] = biological target: HLA-A*24:03; assay: IEDB peptide-MHC binding, purified MHC/direct/fluorescence; filed as Kd, often an IC50 or EC50 that approximates it; ≥ and ≤ were set here for values at or beyond the usual limits of such assays; settings: source organism: Mycobacterium tuberculosis
[13] = biological target: HLA-B*44:02; assay: as above; settings: source organism: Dengue virus 1 Singapore/S275/1990
[14] = biological target: HLA-B*18:01; assay: as above; settings: source organism: Dengue virus 1 Singapore/S275/1990
[15] = biological target: HLA-B*45:06; assay: IEDB peptide-MHC binding, purified MHC/competitive/fluorescence; filed as Kd, often an IC50 or EC50 that approximates it; ≥ and ≤ were set here for values at or beyond the usual limits of such assays
[16] = biological target: HLA-B*15:42; assay: as above
[17] = biological target: HLA-B*83:01; assay: as above
[18] = biological target: HLA-B*08:01; assay: IEDB peptide-MHC binding, purified MHC/direct/fluorescence; filed as Kd, often an IC50 or EC50 that approximates it; ≥ and ≤ were set here for values at or beyond the usual limits of such assays; settings: source organism: Salmonella enterica subsp. enterica serovar Typhimurium str. LT2
[19] = biological target: HLA-A*26:01; assay: IEDB peptide-MHC binding, purified MHC/competitive/fluorescence; filed as Kd, often an IC50 or EC50 that approximates it; ≥ and ≤ were set here for values at or beyond the usual limits of such assays; settings: source organism: Bacillus anthracis str. A0488
[20] = source organism: Mammarenavirus machupoense
[21] = source organism: Mammarenavirus guanaritoense
[22] = source organism: SARS coronavirus Tor2
[23] = source organism: Mammarenavirus brazilense
[24] = source organism: Mycobacterium tuberculosis H37Rv
[25] = source organism: Mycobacterium tuberculosis C
[26] = source organism: human gammaherpesvirus 4
[27] = source organism: Mammarenavirus lassaense

Sequence NLPIYSEEI has a Kd [1] of 27.5 nM, a Kd [2] of 77.1 nM and a Kd [3] of 66.6 nM. It also gave a Kd [4] of 390 nM and a Kd [5] of 39.3 nM.
In the case of PDIGELFGL, the Kd [6, 20] is reported as 12700 nM, the Kd [7, 20] is reported as at least 77700 nM and the Kd [8, 20] is reported as at least 66600 nM. For the same sequence, the Kd [9, 20] was at least 22100 nM, the Kd [10, 20] was at least 77900 nM and the Kd [11, 20] was at least 77500 nM.
PEFDWILGWT was tested, and the Kd [6, 21] was at least 69500 nM, the Kd [7, 21] was at least 70000 nM and the Kd [8, 21] was at least 28100 nM. For the same sequence, the Kd [9, 21] was at least 23600 nM, the Kd [10, 21] was at least 70200 nM and the Kd [11, 21] was at least 70400 nM.
In the case of PYIDAADQF, the Kd [12] is reported as 91.2 nM.
QEAYYRARA gave a Kd [6, 22] of 19900 nM, a Kd [7, 22] of 15.1 nM and a Kd [8, 22] of 7320 nM. It also gave a Kd [9, 22] of 1930 nM, a Kd [10, 22] of 6160 nM and a Kd [11, 22] of at least 50800 nM.
Sequence QEIQLLAAVG has a Kd [6, 22] of 2010 nM, a Kd [7, 22] of 121 nM and a Kd [8, 22] of 440 nM. The Kd [9, 22] was 18000 nM, the Kd [10, 22] was 883 nM and the Kd [11, 22] was 6880 nM.
Sequence QESLTTTSTA has a Kd [6, 22] of 10200 nM, a Kd [7, 22] of 39.6 nM and a Kd [8, 22] of 682 nM. For the same sequence, the Kd [9, 22] was 146 nM, the Kd [10, 22] was 7110 nM and the Kd [11, 22] was at least 70500 nM.
Sequence REIGSLLHGL has a Kd [6, 23] of 9190 nM, a Kd [7, 23] of 2750 nM and a Kd [8, 23] of 878 nM. For the same sequence, the Kd [9, 23] was 5.84 nM, the Kd [10, 23] was 764 nM and the Kd [11, 23] was at least 30400 nM.
With RERVNINIV the Kd [6, 22] was 10700 nM, the Kd [7, 22] was 265 nM and the Kd [8, 22] was at least 38200 nM. It also gave a Kd [9, 22] of 26 nM, a Kd [10, 22] of at least 35400 nM and a Kd [11, 22] of at least 37800 nM.
With SEHTGKEIV the Kd [13] was at least 20000 nM and the Kd [14] was 3090 nM.
In the case of SPAAYVLPL, the Kd [15, 24] is reported as at least 5000 nM, the Kd [16, 24] is reported as at least 5000 nM and the Kd [17, 24] is reported as 156 nM.
Work on SVMAIFYLR yielded a Kd [15, 25] of at least 5000 nM, a Kd [16, 25] of at least 5000 nM and a Kd [17, 25] of at least 5000 nM.
In the case of TEFQSVTFTM, the Kd [6, 20] is reported as 1570 nM, the Kd [7, 20] is reported as 13600 nM and the Kd [8, 20] is reported as 636 nM. For the same sequence, the Kd [9, 20] was 126 nM, the Kd [10, 20] was 1160 nM and the Kd [11, 20] was 32.8 nM.
In the case of TMRLRSEVL, the Kd [18] is reported as 22 nM.
For TVKSFLNFY, the Kd [19] was 7.2 nM.
VESSSKLWA gave a Kd [6, 22] of at least 42200 nM, a Kd [7, 22] of 267 nM and a Kd [8, 22] of 1600 nM. It also gave a Kd [9, 22] of 3160 nM, a Kd [10, 22] of 3340 nM and a Kd [11, 22] of 1250 nM.
For VPRPRFSAL, the Kd [15, 26] was at least 20000 nM, the Kd [16, 26] was at least 5000 nM and the Kd [17, 26] was 106 nM.
YDFVLVGPC was tested, and the Kd [6, 27] was 3340 nM, the Kd [7, 27] was 7220 nM and the Kd [8, 27] was 6830 nM. The Kd [9, 27] was 836 nM, the Kd [10, 27] was 1000 nM and the Kd [11, 27] was at least 24000 nM.
For YDQLLDSSL, the Kd [6, 23] was 9990 nM, the Kd [7, 23] was at least 77700 nM and the Kd [8, 23] was at least 78100 nM. It also gave a Kd [9, 23] of 273 nM, a Kd [10, 23] of at least 26500 nM and a Kd [11, 23] of 15400 nM.
